Results as given in paper PMC10502657 (Advanced Science, 2023).

What was measured:
[1] = biological target: T1, Flag–p53 (UniProt P04637 1-393); assay: pull-down; GST-fusion proteins immobilised on glutathione beads incubated with purified Flag-tagged proteins in 50 mM Tris-HCl pH 7.4, 150 mM NaCl, 0.5% Triton X-100 for 4 h at 4 °C; western blot; settings: both partners purified
T1 construct: p53; also called Flag-tagged p53; source: HEK293T, transfected, in lysate

[2] = biological target: T2, Flag–USP7 (UniProt Q93009 1-1102); assay: as above; settings: both partners purified
T2 construct: ubiquitin-specific protease 7 (USP7); also called Flag-tagged USP7; source: HEK293T, transfected, in lysate
T2 sequence (Q93009 whole entry): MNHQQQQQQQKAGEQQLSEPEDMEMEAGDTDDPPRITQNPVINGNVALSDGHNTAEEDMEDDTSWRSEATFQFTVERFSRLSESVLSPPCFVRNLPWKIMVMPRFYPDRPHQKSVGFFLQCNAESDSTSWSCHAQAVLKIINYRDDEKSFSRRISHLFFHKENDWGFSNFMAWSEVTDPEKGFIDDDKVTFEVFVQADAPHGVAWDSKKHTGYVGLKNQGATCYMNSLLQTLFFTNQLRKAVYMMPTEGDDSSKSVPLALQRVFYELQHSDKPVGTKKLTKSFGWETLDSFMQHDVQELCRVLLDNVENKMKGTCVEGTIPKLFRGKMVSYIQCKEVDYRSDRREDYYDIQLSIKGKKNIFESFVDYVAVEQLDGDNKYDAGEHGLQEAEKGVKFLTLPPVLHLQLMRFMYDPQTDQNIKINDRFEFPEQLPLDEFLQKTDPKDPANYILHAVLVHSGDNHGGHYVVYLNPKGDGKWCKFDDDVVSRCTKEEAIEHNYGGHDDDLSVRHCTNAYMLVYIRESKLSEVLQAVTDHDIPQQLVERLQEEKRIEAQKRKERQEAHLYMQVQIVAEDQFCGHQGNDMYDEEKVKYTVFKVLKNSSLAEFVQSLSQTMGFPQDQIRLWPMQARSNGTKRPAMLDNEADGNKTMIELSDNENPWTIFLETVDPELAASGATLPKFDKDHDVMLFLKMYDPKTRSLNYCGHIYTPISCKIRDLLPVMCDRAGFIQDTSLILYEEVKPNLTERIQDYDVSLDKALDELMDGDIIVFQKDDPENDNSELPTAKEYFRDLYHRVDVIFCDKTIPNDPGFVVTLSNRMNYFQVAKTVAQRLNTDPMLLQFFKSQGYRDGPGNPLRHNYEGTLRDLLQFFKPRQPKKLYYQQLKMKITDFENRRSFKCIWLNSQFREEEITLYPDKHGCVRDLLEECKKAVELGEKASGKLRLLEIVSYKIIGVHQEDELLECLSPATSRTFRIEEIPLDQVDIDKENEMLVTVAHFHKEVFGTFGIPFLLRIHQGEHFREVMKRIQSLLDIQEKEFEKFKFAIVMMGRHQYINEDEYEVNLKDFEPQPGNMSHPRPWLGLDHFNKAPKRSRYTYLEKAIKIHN

T1 sequence (P04637 whole entry, the tested form may be a part): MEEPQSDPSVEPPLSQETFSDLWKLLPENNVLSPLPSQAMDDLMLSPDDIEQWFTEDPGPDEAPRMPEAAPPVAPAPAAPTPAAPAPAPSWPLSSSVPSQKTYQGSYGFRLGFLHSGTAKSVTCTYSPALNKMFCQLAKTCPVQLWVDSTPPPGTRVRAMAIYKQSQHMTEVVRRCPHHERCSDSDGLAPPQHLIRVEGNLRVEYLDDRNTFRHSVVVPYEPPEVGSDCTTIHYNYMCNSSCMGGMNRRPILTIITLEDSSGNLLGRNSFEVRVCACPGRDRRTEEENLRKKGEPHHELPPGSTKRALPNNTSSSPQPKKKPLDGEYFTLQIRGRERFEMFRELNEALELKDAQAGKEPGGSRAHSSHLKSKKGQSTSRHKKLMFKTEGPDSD

binding result [1]: binds | binding result [2]: binds
B1: GST–MLF2 (natural protein, UniProt Q15773 1-248, looked up)
chain: MFRFMRDVEPEDPMFLMDPFAIHRQHMSRMLSGGFGYSPFLSITDGNMPGTRPASRRMQQAGAVSPFGMLGMSGGFMDMFGMMNDMIGNMEHMTAGGNCQTFSSSTVISYSNTGDGAPKVYQETSEMRSAPGGIRETRRTVRDSDSGLEQMSIGHHIRDRAHILQRSRNHRTGDQEERQDYINLDESEAAAFDDEWRRETSRFRQQRPLEFRRLESSGAGGRRAEGPPRLAIQGPEDSPSRQSRRYDW
notes: myeloid leukemia factor 2 (MLF2); also called glutathione-S-transferase (GST) tagged MLF2
